Experimental data from doi:10.1101/2020.04.09.034405.

Key:
[1] = target: EPHA2 fused to a fluorescent protein for FRET (EPHA2-mRuby3; EPHA2-mClover3) (human) (UniProt P29317); test: FRET or BRET
[2] = target: ROBO1 fused to a fluorescent protein for FRET (ROBO1-mClover3) (human) (UniProt Q9Y6N7); test: FRET or BRET
UniProt Q9Y6N7, sequence (Q9Y6N7 26-1651): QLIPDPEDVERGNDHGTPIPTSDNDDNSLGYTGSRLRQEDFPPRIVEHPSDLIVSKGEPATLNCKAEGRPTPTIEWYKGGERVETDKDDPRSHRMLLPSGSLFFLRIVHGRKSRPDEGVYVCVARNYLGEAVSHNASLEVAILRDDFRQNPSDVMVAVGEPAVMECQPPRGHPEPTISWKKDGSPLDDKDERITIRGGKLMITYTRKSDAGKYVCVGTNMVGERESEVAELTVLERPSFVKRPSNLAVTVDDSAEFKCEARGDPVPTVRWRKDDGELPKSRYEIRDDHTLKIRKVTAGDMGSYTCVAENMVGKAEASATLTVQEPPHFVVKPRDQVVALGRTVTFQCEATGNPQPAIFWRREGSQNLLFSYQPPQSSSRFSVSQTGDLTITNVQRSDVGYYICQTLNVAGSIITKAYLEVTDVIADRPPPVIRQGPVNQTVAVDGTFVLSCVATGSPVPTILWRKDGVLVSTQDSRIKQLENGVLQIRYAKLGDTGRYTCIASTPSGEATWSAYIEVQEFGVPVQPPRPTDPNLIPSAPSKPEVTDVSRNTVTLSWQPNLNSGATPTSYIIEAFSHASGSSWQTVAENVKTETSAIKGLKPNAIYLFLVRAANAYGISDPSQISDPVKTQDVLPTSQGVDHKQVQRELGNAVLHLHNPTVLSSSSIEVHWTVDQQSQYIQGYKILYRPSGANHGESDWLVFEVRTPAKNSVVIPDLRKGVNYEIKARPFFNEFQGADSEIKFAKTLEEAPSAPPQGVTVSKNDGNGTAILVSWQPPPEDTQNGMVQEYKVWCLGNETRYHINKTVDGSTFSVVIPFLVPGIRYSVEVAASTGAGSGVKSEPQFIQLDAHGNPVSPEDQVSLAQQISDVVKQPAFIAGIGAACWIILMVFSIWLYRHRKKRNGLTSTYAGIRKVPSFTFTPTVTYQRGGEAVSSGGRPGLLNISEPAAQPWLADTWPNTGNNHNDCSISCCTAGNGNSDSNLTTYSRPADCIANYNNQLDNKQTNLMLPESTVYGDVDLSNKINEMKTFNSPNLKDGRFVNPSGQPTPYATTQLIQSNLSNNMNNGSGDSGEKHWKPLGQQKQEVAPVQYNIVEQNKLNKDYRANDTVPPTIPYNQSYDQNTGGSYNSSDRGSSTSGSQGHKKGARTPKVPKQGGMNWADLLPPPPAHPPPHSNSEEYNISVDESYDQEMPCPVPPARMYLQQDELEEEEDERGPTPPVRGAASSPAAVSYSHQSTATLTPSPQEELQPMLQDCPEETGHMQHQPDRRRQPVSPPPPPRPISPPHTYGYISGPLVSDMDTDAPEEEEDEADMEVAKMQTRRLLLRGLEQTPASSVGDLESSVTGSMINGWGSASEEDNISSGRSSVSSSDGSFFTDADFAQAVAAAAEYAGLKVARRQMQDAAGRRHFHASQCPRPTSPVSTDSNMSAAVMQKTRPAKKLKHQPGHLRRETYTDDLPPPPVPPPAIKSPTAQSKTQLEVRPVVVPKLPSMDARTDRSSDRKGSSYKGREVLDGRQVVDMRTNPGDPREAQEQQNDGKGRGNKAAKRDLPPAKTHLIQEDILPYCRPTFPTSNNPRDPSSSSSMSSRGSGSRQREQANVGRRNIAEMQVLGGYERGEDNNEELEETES

Substance: EPHA2 fused to a fluorescent protein for FRET (EPHA2-mRuby3; EPHA2-mClover3) (from UniProt P29317 24-976) (receptor)
- N-FRET [1]: 0.347
- N-FRET [2]: 0.234
